Experimental data from publication PMC5496246, “Site-specific chemical conjugation of human Fas ligand extracellular domain using trans-cyclooctene – methyltetrazine reactions” (BMC Biotechnology, 2017).

What was measured:
Assay in all cases: co-IP; receptor-mediated co-immunoprecipitation: sample (5.5 ug) with hFasRECD-Fc (8.8 ug) and Protein G conjugated magnetic beads (1.0 mg) in 1.0 ml 50 mM Tris-HCl, 150 mM NaCl (pH 7.5), 1% Nonidet P40, 0.5% sodium deoxycholate; precipitate read by SDS-PAGE with silver stain
Conditions in all cases: both partners purified
[1] = biological target: T1, TCO-derivative of NFK3G1CG4-hFasLECD (human, UniProt P48023 139-281, N184Q | N250Q, cysteine in the N-terminal tag sequence modified with trans-cyclooctene-PEG3-maleimide)
T1 construct: holds the reactive cysteine; human Fas ligand extracellular domain, residues 139-281, with N184Q and N250Q; also called hFasLECD-TCO; source: P. pastoris secretory expression, purified (cation exchange); modified with TCO-PEG3-MAL, size-exclusion chromatography; not shown: FLAG, N-terminal, kept
T1 sequence: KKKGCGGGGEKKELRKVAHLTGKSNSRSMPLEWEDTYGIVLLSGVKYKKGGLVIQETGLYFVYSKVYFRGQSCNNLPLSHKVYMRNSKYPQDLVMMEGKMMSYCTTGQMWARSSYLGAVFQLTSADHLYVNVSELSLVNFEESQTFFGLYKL

[2] = biological target: T2, sulfo-Cy3-TCO conjugated hFasLECD-MTZ (human, UniProt P48023 139-281, N184Q | N250Q, cysteine in the N-terminal tag sequence modified with methyltetrazine-PEG4-maleimide and conjugated with sulfo-Cy3-trans-cyclooctene; estimated 1.6 fluorochromes per hFasLECD trimer)
T2 construct: holds the reactive cysteine; human Fas ligand extracellular domain, residues 139-281, with N184Q and N250Q; Derived from NFK3G1CG4-hFasLECD; Not every subunit of the trimer carries the fluorochrome; also called Sulfo-Cy3-TM-hFasLECD; sulfo-Cy3 conjugated hFasLECD; source: P. pastoris secretory expression, purified (cation exchange); modified with MTZ-PEG4-MAL, reacted with sulfo-Cy3-TCO, purified …
T2 sequence: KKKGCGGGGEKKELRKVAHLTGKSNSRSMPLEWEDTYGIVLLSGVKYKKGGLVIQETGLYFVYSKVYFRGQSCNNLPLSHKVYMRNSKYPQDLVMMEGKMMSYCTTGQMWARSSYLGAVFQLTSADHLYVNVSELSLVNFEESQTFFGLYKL

[3] = biological target: T3, sulfo-Cy3-MTZ conjugated hFasLECD-TCO (human, UniProt P48023 139-281, N184Q | N250Q, cysteine in the N-terminal tag sequence modified with trans-cyclooctene-PEG3-maleimide and conjugated with sulfo-Cy3-methyltetrazine; estimated 1.5 fluorochromes per hFasLECD trimer)
T3 construct: holds the reactive cysteine; human Fas ligand extracellular domain, residues 139-281, with N184Q and N250Q; Derived from NFK3G1CG4-hFasLECD; Not every subunit of the trimer carries the fluorochrome; also called Sulfo-Cy3-MT-hFasLECD; sulfo-Cy3 conjugated hFasLECD; source: P. pastoris secretory expression, purified (cation exchange); modified with TCO-PEG3-MAL, reacted with sulfo-Cy3-MTZ, purified …
T3 sequence: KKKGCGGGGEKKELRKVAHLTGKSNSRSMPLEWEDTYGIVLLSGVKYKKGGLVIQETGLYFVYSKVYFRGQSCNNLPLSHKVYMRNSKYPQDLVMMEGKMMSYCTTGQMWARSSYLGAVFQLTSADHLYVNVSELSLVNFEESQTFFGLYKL

[4] = biological target: T4, Avidin-hFasLECD conjugate (human | chicken, UniProt P48023 139-281; P02701 25-152, N184Q | N250Q, cysteine in the N-terminal tag sequence modified with trans-cyclooctene-PEG3-maleimide, joined through the TCO-MTZ reaction to an MTZ-PEG4 group on avidin | lysine residues modified with …)
T4 construct: holds the reactive cysteine; human Fas ligand extracellular domain, residues 139-281, with N184Q and N250Q; avidin from chicken egg white, native homotetramer; Covalent chemical conjugate, thought to be one avidin tetramer to one hFasLECD trimer; on SDS-PAGE mainly one avidin subunit joined to one hFasLECD subunit, less of one avidin subunit with two hFasLECD subunits; not shown: FLAG, …

Measured: binding result

T4 sequence (P02701 25-152, stated change not applied, one chain of several): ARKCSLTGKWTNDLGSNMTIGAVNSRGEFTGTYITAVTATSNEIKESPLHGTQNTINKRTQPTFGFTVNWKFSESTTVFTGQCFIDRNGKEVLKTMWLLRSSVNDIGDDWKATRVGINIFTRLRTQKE

B1: human Fas receptor extracellular domain-human IgG1 Fc domain fusion protein (Fc fusion, UniProt P25445 26-173, looked up)
chain: QVTDINSKGLELRKTVTTVETQNLEGLHHDGQFCHKPCPPGERKARDCTVNGDEPDCVPCQEGKEYTDKAHFSSKCRRCRLCDEGHGLEVEINCTRTQNTKCRCKPNFFCNSTVCEHCDPCTKCEHGIIKECTLTSNTKCKEEGSRSN
notes: human Fas receptor (hFasR) extracellular domain; also called hFasRECD-Fc; source: baculovirus - Bombyx mori expression system, purified
binds: [1] | [2] | [3] | [4]
